Assay [1] concerns the target c-Jun N-terminal kinase 1 (JNK1), inactive, unphosphorylated form (UniProt P45983). As to the kind of experiment: native MS.
In assay [2] the target is RPLL mutant of JIP1_(116–266) (R160E, P161A, L164A, L166A) (UniProt Q9UQF2). As to the kind of experiment: NMR 15N CPMG relaxation dispersion.
Assay [3] addresses T1, c-Jun N-terminal kinase 1 (JNK1), inactive, unphosphorylated form (UniProt P45983 5-364). As to the kind of experiment: ITC. (Isothermal titration calorimetry measures the heat released or taken up as one component is titrated into another.)
Assay [4] deals with T1, c-Jun N-terminal kinase 1 (JNK1), …. As to the kind of experiment: native MS.

Where “and” joins values, the source holds several entries; their conditions need not be identical. Equal entries are not always repeated.

T1 sequence (P45983 5-364): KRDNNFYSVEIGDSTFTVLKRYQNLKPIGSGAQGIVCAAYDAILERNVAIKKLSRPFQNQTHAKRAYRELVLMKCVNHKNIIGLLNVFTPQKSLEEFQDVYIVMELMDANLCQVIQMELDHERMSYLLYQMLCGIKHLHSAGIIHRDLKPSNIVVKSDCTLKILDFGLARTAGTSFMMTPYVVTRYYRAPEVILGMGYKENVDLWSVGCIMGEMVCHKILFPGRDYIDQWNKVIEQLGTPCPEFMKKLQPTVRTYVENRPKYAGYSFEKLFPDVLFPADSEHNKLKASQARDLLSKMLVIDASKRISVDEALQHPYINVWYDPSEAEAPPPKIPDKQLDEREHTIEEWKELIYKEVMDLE
c-Jun N-terminal kinase 1 (JNK1), inactive, unphosphorylated form (UniProt P45983), sequence (P45983 5-364): as above

In the case of “JIP1_(1–145) (from UniProt Q9UQF2 1-145) (domain or fragment)”, the stoichiometry N in assay [1] came out at 1.

In assay [2], “c-Jun N-terminal kinase 1 (JNK1), inactive, unphosphorylated form (from UniProt P45983 5-364) (enzyme)” registered a Kd of 2200 µM, a bound-state population pB of 1.6%, an exchange rate constant kex of 1100 s⁻¹ and a koff of 1080 s⁻¹. The same molecule returned an on-rate (kon) in assay [2] of 480000 M⁻¹ s⁻¹.

On to RPKRPTTLNLF [peptide corresponding to the D-motif of JIP1 (157RPKRPTTLNLF167)], for which the dissociation constant Kd in assay [3] came out at 0.217 µM. This counts as sub-micromolar.

B1: JIP1_(1–266) (domain or fragment, UniProt Q9UQF2 1-266, looked up)
chain: MAERESGGLGGGAASPPAASPFLGLHIASPPNFRLTHDISLEEFEDEDLSEITDECGISLQCKDTLSLRPPRAGLLSAGGGGAGSRLQAEMLQMDLIDATGDTPGAEDDEEDDDEERAARRPGAGPPKAESGQEPASRGQGQSQGQSQGPGSGDTYRPKRPTTLNLFPQVPRSQDTLNNNSLGKKHSWQDRVSRSSSPLKTGEQTPPHEHICLSDELPPQSGPAPTTDRGTSTDSPCRRSTATQMAPPGGPPAAPPGGRGHSHRDR
For the molecule B1, the “stoichiometry N” value in assay [4] was 1 and 2 JNK1 per JIP1.

B2: IL mutant of JIP1_(116–266) (I211A, L213A) (domain or fragment, UniProt Q9UQF2 116-266, looked up)
chain: ERAARRPGAGPPKAESGQEPASRGQGQSQGQSQGPGSGDTYRPKRPTTLNLFPQVPRSQDTLNNNSLGKKHSWQDRVSRSSSPLKTGEQTPPHEHACASDELPPQSGPAPTTDRGTSTDSPCRRSTATQMAPPGGPPAAPPGGRGHSHRDR
Take B2: the “stoichiometry N” value in assay [4] was 1. In assay [3], the Kd is 0.082 µM and the dH is -10.7 kcal/mol.

B3: JIP1_(116–266), the shortest construct comprising the D-motif (domain or fragment, UniProt Q9UQF2 116-266, looked up)
chain: ERAARRPGAGPPKAESGQEPASRGQGQSQGQSQGPGSGDTYRPKRPTTLNLFPQVPRSQDTLNNNSLGKKHSWQDRVSRSSSPLKTGEQTPPHEHICLSDELPPQSGPAPTTDRGTSTDSPCRRSTATQMAPPGGPPAAPPGGRGHSHRDR
Take B3: in assay [4], the “stoichiometry N” value is 1. Besides, in assay [3], the Kd amounted to 0.081 µM, the dH was -11.6 kcal/mol and the “ΔΔH (binding enthalpy against the D-motif peptide)” value was found to be 4 kcal/mol.

By stoichiometry N is commonly meant a count of units in the complex or per binding partner. A word on the Kd: it is the free concentration of one partner at which half of the binding sites on the other are occupied at equilibrium, for simple one-to-one binding. The low end stands for higher affinity, the high end for lower affinity. In general, koff refers to the first-order rate constant of dissociation. As usually defined, the kon is the second-order rate constant of association. Lower therefore signals slow association.

For the origin of these results see paper PMC11892650 (Proceedings of the National Academy of Sciences of the …, 2025).
